From US7067474B1, “Agents for treating human illnesses based on β-catenin, and the production and use thereof” (Max-Delbruck-Centrum fur Molekulare Medizin, priority 1998, dated 2006)

Target: T1, human β-catenin (armadillo repeat 3 up to the C-terminal end, Leu218-Leu781) fused to the activation domain … (human, UniProt P04386 768-881; P35222 218-781)
T1 construct: Order of the fusion follows the vector; also called wild type β-catenin
T1 sequence (looked up): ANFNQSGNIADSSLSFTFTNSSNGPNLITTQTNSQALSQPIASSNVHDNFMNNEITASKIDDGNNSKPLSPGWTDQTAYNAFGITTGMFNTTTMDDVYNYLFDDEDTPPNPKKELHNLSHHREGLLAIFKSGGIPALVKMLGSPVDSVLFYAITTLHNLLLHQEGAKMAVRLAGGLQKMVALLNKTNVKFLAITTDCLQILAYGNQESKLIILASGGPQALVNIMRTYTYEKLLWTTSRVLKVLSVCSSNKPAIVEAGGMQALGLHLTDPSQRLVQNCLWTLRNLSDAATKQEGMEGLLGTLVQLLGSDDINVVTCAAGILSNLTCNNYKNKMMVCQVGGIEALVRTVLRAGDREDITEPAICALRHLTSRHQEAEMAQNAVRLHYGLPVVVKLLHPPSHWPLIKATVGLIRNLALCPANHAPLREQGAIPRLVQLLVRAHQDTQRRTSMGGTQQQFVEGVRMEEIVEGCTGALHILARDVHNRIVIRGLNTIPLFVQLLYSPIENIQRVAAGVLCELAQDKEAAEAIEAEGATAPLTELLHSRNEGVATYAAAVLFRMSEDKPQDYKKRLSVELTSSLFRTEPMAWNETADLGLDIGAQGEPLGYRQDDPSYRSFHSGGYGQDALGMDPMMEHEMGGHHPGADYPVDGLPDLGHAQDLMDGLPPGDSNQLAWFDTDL
Assay: yeast 2-hybrid; wild type is the 100% reference of Table 2
Description: 4. Preparation and testing of mutants of β-catenin modulating the interaction with LEF-1, APC, conductin or E-cadherin The mutagenesis of β-catenin in the armadillo repeats 3–8 was carried out by means of the "mutagenesis kit" of the company Clontech according to the producer's record and the mutants were checked by sequencing (FIG. 5). In all mutants the original amino acid was substituted by alanine. For analyzing the interactions the cDNA of human β-catenin (armadillo repeat 3 up to the C-terminal end of the protein) coding for the amino acids Leu218–Leu7 µl or its mutants was cloned into the fusion vector for the activation domain of Gal-4 (pGAD424, Clontech). The cDNA for the binding domains of the interaction partners was cloned into the Lex-A fusion vector BTM 116. To this end, the cDNA of LEF-1 for the amino acids 1–99, conductin for the amino acids Ala342–ARG465; of human APC for the amino acids His1012–Glu1215 (APC 15 amino acid repeats) and for the amino acids Ser1259Asp 1400 (APC 20 amino acid repeats) and E-cadherin for the amino acids Gin773–Asp884 (cytoplasmatic domain) were amplified with the respective primers PCR. The interaction of the Lex-A hybrids with β-catenin and its mutants was quantified by means of the β-galactosidase reporter activity in the yeast 2-hybrid system (report: "Matchmaker". Clontech) (Tab. 2 and FIG. 6).

B1: LEF-1 amino acids 1-99 fused to Lex-A (vector BTM 116) (other, UniProt P0A7C2 1-202, looked up)
chain: MKALTARQQEVFDLIRDHISQTGMPPTRAEIAQRLGFRSPNAAEEHLKALARKGVIEIVSGASRGIRLLQEEEEGLPLVGRVAAGEPLLAQQHIEGHYQVDPSLFKPNADFLLRVSGMSMKDIGIMDGDLLAVHKTQDVRNGQVVVARIDDEVTVKRLKKQGNKVELLPENSEFKPIVVDLRQQSFTIEGLAVGVIRNGDWLMPQLSGGGGGGDPELCATDEMIPFKDEGDPQKEKIFAEISHPEEEGDLADIKSSLVNESEIIPASNGHEVVRQAPSSQEPYHDKAREHPDEGKHPDGGL
notes: Order of the fusion follows the vector; also called LEF-1/TCF-4
B1: binds.
